From article PMC9482650, “Quantitative fragmentomics allow affinity mapping of interactomes” (Nature Communications, 2022)

Experiments:
Test in all cases: holdup assay
Design in all cases: key: below the threshold = too weak to quantify, mostly under pKd 3.1 to 4
GORASP2, Q9H8Y8 = target: GORASP2, Q9H8Y8
TX1BP3, O14907 = target: T1, TX1BP3, O14907
T1 sequence (O14907 10-122, limits assumed, looked up): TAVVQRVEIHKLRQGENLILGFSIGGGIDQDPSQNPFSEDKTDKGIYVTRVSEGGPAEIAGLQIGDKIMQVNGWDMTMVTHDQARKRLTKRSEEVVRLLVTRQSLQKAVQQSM

LAP2, Q96RT1 = target: LAP2, Q96RT1
APBA1_2, Q02410 = target: T2, APBA1_2, Q02410
T2 sequence (Q02410 742-832, limits assumed, looked up): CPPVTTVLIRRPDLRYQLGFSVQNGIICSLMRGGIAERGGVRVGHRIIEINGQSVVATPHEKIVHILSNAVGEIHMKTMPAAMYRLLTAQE

SNTG2, Q9NY99 = target: T3, SNTG2, Q9NY99
T3 sequence (Q9NY99 68-166, limits assumed, looked up): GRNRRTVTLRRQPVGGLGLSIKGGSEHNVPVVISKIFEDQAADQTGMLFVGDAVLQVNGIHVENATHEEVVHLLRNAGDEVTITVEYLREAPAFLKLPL

DLG4_3, P78352 = target: DLG4_3, P78352
NHERF2_2, Q15599 = target: NHERF2_2, Q15599
ARHGAP21, Q5T5U3 = target: T4, ARHGAP21, Q5T5U3
T4 sequence (Q5T5U3 45-169, limits assumed, looked up): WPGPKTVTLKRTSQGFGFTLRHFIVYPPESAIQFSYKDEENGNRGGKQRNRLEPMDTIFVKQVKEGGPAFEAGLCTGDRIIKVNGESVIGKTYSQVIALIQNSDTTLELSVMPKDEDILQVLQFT

NHERF4_4, Q86UT5 = target: NHERF4_4, Q86UT5
FRMPD1, Q5SYB0 = target: T5, FRMPD1, Q5SYB0
T5 sequence (Q5SYB0 52-145, limits assumed, looked up): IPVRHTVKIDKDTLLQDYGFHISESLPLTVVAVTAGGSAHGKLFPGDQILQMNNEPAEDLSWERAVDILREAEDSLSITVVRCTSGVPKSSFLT

FRMPD3, Q5JV73 = target: FRMPD3, Q5JV73
SNX27, Q96L92 = target: SNX27, Q96L92
LIN7C, Q9NUP9 = target: T6, LIN7C, Q9NUP9
T6 sequence (Q9NUP9 88-185, limits assumed, looked up): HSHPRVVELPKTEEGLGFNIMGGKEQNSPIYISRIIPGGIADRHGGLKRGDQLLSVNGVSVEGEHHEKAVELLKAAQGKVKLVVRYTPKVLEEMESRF

ARHGEF11, O15085 = target: T7, ARHGEF11, O15085
T7 sequence (O15085 42-136, limits assumed, looked up): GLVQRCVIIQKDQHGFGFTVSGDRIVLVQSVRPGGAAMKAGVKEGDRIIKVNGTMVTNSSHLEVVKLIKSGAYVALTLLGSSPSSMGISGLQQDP

DLG2_3, Q15700 = target: DLG2_3, Q15700
APBA1_1, Q02410 = target: T8, APBA1_1, Q02410
T8 sequence (Q02410 651-752, limits assumed, looked up): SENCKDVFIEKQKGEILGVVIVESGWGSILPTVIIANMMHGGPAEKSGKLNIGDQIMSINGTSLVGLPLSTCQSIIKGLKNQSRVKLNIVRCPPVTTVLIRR

NOS1, P29475 = target: NOS1, P29475
MAGI3_2, Q5TCQ9 = target: MAGI3_2, Q5TCQ9
MAST1, Q9Y2H9 = target: MAST1, Q9Y2H9
SCRIB_3, Q14160 = target: SCRIB_3, Q14160
TJP3_3, O95049 = target: T9, TJP3_3, O95049
T9 sequence (O95049 375-456, limits assumed, looked up): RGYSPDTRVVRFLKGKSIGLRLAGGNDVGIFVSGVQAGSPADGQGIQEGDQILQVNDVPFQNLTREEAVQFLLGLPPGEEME

PDZD2_2, O15018 = target: T10, PDZD2_2, O15018
T10 sequence (O15018 329-429, limits assumed, looked up): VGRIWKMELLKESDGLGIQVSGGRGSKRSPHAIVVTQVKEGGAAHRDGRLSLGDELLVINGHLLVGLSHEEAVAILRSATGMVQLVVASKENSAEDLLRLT

DFNB31_3, Q9P202 = target: T11, DFNB31_3, Q9P202
T11 sequence (Q9P202 811-907, limits assumed, looked up): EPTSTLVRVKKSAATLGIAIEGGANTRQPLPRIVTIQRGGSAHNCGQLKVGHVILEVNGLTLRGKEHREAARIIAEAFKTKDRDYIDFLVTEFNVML

GRIP2_3, Q9C0E4 = target: GRIP2_3, Q9C0E4
MAGI2_5, Q86UL8 = target: MAGI2_5, Q86UL8
Inadl_1, Q8NI35 = target: Inadl_1, Q8NI35
GRID2IP_2, A4D2P6 = target: GRID2IP_2, A4D2P6
[1] = plain residues with an end cap or a label only (N-terminal biotin on a linker: ahx)
[2] = plain residues with an end cap or a label only (N-terminal biotin on a linker: ttds)

Chain of LAP2, Q96RT1 (Q96RT1 other isoform, or with tags, fused parts or gaps): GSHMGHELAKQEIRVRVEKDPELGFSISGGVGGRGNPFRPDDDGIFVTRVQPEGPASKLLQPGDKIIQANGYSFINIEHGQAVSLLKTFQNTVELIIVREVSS
Chain of NHERF4_4, Q86UT5 (Q86UT5 464-550): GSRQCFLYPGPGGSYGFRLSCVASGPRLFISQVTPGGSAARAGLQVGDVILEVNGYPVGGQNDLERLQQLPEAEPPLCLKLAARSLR
Chain of Inadl_1, Q8NI35 (Q8NI35 113-229): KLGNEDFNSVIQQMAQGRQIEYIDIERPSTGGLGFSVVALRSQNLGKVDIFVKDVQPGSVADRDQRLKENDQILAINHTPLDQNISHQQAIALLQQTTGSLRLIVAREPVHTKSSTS
Chain of GRID2IP_2, A4D2P6 (A4D2P6 272-370): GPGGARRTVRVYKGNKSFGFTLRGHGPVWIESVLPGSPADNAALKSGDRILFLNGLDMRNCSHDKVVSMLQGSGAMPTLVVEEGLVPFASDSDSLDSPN
Chain of SCRIB_3, Q14160 (Q14160 999-1103): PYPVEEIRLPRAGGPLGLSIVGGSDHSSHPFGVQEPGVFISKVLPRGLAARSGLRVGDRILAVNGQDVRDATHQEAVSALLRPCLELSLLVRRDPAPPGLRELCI
Chain of MAGI3_2, Q5TCQ9 (Q5TCQ9 398-503): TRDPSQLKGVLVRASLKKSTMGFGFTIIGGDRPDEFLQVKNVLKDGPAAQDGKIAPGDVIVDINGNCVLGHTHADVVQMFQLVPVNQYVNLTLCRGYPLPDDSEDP
Chain of NOS1, P29475 (P29475 9-101): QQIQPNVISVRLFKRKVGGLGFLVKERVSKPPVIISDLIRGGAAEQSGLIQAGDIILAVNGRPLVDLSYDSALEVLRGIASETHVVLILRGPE
Chain of MAST1, Q9Y2H9 (Q9Y2H9 962-1065): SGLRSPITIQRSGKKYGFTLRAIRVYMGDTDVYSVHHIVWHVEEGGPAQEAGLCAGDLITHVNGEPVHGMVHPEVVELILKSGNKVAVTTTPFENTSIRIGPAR
Chain of DLG4_3, P78352 (P78352 306-403): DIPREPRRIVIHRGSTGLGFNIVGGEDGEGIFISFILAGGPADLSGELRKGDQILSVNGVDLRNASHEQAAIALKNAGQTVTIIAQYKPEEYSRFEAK
Chain of GRIP2_3, Q9C0E4 (Q9C0E4 238-339): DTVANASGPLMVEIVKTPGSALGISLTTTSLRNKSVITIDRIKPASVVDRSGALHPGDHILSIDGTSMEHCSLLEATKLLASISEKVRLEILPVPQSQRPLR
Chain of NHERF2_2, Q15599 (Q15599 142-238): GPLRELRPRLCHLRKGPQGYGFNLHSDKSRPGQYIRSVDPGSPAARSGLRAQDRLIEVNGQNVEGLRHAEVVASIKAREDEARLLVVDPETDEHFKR
Chain of MAGI2_5, Q86UL8 (Q86UL8 915-1017): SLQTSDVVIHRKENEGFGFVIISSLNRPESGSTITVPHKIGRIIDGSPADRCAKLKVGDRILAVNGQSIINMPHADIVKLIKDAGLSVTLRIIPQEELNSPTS
Chain of FRMPD3, Q5JV73 (Q5JV73 12-100): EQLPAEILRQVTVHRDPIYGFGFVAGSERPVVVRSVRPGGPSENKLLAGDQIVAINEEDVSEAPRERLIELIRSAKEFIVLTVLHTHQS

With KEYDDELTFF [USH1C, Q9Y6N9] the pKd (GORASP2, Q9H8Y8; [1]) was 3.57, the pKd (TX1BP3, O14907; [1]) was “below the threshold” and the pKd (LAP2, Q96RT1; [1]) was “below the threshold”. For the same binder, the pKd (APBA1_2, Q02410; [1]) was “below the threshold”, the pKd (SNTG2, Q9NY99; [1]) was “below the threshold” and the pKd (DLG4_3, P78352; [1]) was “below the threshold”. For the same binder, the pKd (NHERF2_2, Q15599; [1]) was 5.32, the pKd (ARHGAP21, Q5T5U3; [1]) was 3.87 and the pKd (NHERF4_4, Q86UT5; [1]) was “below the threshold”. For the same binder, the pKd (FRMPD1, Q5SYB0; [1]) was “below the threshold”, the pKd (FRMPD3, Q5JV73; [1]) was 4.7 and the pKd (SNX27, Q96L92; [1]) was 4.51. For the same binder, the pKd (LIN7C, Q9NUP9; [1]) was “below the threshold”, the pKd (ARHGEF11, O15085; [1]) was “below the threshold” and the pKd (DLG2_3, Q15700; [1]) was “below the threshold”. The pKd (APBA1_1, Q02410; [1]) was “below the threshold”, the pKd (NOS1, P29475; [1]) was “below the threshold” and the pKd (MAGI3_2, Q5TCQ9; [1]) was “below the threshold”. For the same binder, the pKd (MAST1, Q9Y2H9; [1]) was 4.52, the pKd (SCRIB_3, Q14160; [1]) was 3.61 and the pKd (TJP3_3, O95049; [1]) was “below the threshold”. The pKd (PDZD2_2, O15018; [1]) was 3.75, the pKd (DFNB31_3, Q9P202; [1]) was 3.88 and the pKd (GRIP2_3, Q9C0E4; [1]) was “below the threshold”. The pKd (MAGI2_5, Q86UL8; [1]) was 3.96, the pKd (Inadl_1, Q8NI35; [1]) was “below the threshold” and the pKd (GRID2IP_2, A4D2P6; [1]) was “below the threshold”.

YNSFLSVTTV [PDZRN3, Q9UPQ7] was tested, and the pKd (GORASP2, Q9H8Y8; [1]) was 4.33, the pKd (TX1BP3, O14907; [1]) was “below the threshold” and the pKd (LAP2, Q96RT1; [1]) was “below the threshold”. For the same binder, the pKd (APBA1_2, Q02410; [1]) was “below the threshold”, the pKd (SNTG2, Q9NY99; [1]) was 3.81 and the pKd (DLG4_3, P78352; [1]) was “below the threshold”. For the same binder, the pKd (NHERF2_2, Q15599; [1]) was “below the threshold”, the pKd (ARHGAP21, Q5T5U3; [1]) was “below the threshold” and the pKd (NHERF4_4, Q86UT5; [1]) was 3.49. For the same binder, the pKd (FRMPD1, Q5SYB0; [1]) was “below the threshold”, the pKd (FRMPD3, Q5JV73; [1]) was “below the threshold” and the pKd (SNX27, Q96L92; [1]) was 4.49. It also gave a pKd (LIN7C, Q9NUP9; [1]) of 3.47, a pKd (ARHGEF11, O15085; [1]) of 4.06 and a pKd (DLG2_3, Q15700; [1]) of 4.06. For the same binder, the pKd (APBA1_1, Q02410; [1]) was “below the threshold”, the pKd (NOS1, P29475; [1]) was “below the threshold” and the pKd (MAGI3_2, Q5TCQ9; [1]) was 4.27. The pKd (MAST1, Q9Y2H9; [1]) was 3.98, the pKd (SCRIB_3, Q14160; [1]) was 3.64 and the pKd (TJP3_3, O95049; [1]) was “below the threshold”. For the same binder, the pKd (PDZD2_2, O15018; [1]) was 3.55, the pKd (DFNB31_3, Q9P202; [1]) was 3.51 and the pKd (GRIP2_3, Q9C0E4; [1]) was “below the threshold”. The pKd (MAGI2_5, Q86UL8; [1]) was 3.9, the pKd (Inadl_1, Q8NI35; [1]) was 3.82 and the pKd (GRID2IP_2, A4D2P6; [1]) was 3.57.

SHSSKGETAV [FZD7, O75084] was tested, and the pKd (GORASP2, Q9H8Y8; [2]) was 3.66, the pKd (TX1BP3, O14907; [2]) was 3.89 and the pKd (LAP2, Q96RT1; [2]) was 4.04. For the same binder, the pKd (APBA1_2, Q02410; [2]) was 3.8, the pKd (SNTG2, Q9NY99; [2]) was “below the threshold” and the pKd (DLG4_3, P78352; [2]) was 4.02. For the same binder, the pKd (NHERF2_2, Q15599; [2]) was “below the threshold”, the pKd (ARHGAP21, Q5T5U3; [2]) was “below the threshold” and the pKd (NHERF4_4, Q86UT5; [2]) was “below the threshold”. The pKd (FRMPD1, Q5SYB0; [2]) was 3.6, the pKd (FRMPD3, Q5JV73; [2]) was “below the threshold” and the pKd (SNX27, Q96L92; [2]) was 4.8. It also gave a pKd (LIN7C, Q9NUP9; [2]) of 4.03, a pKd (ARHGEF11, O15085; [2]) of 4.3 and a pKd (DLG2_3, Q15700; [2]) of 4.32. For the same binder, the pKd (APBA1_1, Q02410; [2]) was “below the threshold”, the pKd (NOS1, P29475; [2]) was 4.41 and the pKd (MAGI3_2, Q5TCQ9; [2]) was 4.93. The pKd (MAST1, Q9Y2H9; [2]) was 4.77, the pKd (SCRIB_3, Q14160; [2]) was 4.78 and the pKd (TJP3_3, O95049; [2]) was “below the threshold”. The pKd (PDZD2_2, O15018; [2]) was 4.09, the pKd (DFNB31_3, Q9P202; [2]) was “below the threshold” and the pKd (GRIP2_3, Q9C0E4; [2]) was 3.55. For the same binder, the pKd (MAGI2_5, Q86UL8; [2]) was “below the threshold”, the pKd (Inadl_1, Q8NI35; [2]) was “below the threshold” and the pKd (GRID2IP_2, A4D2P6; [2]) was “below the threshold”.
